{"source": "patent US20250019454A1", "about": "(BIOCYTOGEN PHARMACEUTICALS BEIJING, published 2025)", "binders": {"B1": {"name": "BC-1B6-IgG1-LALA (antibody, V domains shown)", "VH": "QVQLVESGGGVVQPGRSLRLSCAASGFTFSNFGMHWVRQAPGKGLEWVAVIWYEGSDKYYADSVKGRFTISRDNSKNTLYLQMNSLRAEDTAVYYCARDSSWGFLLYGMDVWGQGTTVTVSS", "VL": "DVVMTQSPLSLPVTLGQPASISCRSSRSLEYSDGNTYLNWFQQRPGQSPRRLIYKVSNRDSGVPDRFSGSGSGTAFTLKISGVEAEDVGVYYCMQGTHWPPTFGGGTKVEIK"}}, "key": {"[1]": {"target": "T1, ΔCRD3-TNFR2 protein (with CRD3 deletion), on CHO-S cells (human, UniProt P20333 23-461)", "T1 construct": "also called CHO-SΔCRD3-TNFR2; TNFR2 lacking CRD3", "T1 sequence": "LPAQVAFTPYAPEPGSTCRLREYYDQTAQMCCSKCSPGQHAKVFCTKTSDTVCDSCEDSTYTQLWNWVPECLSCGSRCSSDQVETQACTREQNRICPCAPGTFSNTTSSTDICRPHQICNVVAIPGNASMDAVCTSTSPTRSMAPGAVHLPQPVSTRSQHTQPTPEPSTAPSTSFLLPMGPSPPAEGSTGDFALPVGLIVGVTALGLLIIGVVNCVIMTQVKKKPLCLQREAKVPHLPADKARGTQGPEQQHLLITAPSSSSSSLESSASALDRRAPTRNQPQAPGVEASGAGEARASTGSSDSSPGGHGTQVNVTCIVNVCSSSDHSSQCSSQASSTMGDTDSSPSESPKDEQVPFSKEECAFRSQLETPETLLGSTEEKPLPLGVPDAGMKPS", "assay": "FACS on CHO-S cells with ΔCRD3-TNFR2, AF647 anti-human IgG Fc secondary", "from_the_text": "(§1) TNFR2 has four cysteine rich domains (CRD). In another experiment, FACS was used to detect the binding of anti-hTNFR2 antibodies to TNFR2 proteins with different structural domains. Secondary antibody (Alexa Fluor® 647 AffiniPure F(ab′) 2 Fragment Goat Anti-Human IgG, Fcγ fragment specific, Jackson ImmunoResearch Laboratories, Inc., Cat #: 151524) was used. The fluorescence-labeled secondary antibody can attach to the Fc region of the anti-hTNFR2 antibodies so that the anti-hTNFR2 antibodies that are bound to the ΔCRD cells can be detected by FACS. Specifically, ΔCRD1-TNFR2 protein (with CRD1 deleteion), ΔCRD2-TNFR2 protein (with CRD2 deleteion), ΔCRD3-TNFR2 protein (with CRD3 deleteion) or ΔCRD4-TNFR2 protein (with CRD4 deleteion) were expressed in CHO-S cells respectively, and then the binding between the cells and different anti-hTNFR2 antibodies was detected."}, "[2]": {"target": "T2, ΔCRD1-TNFR2 protein (with CRD1 deletion), on CHO-S cells (human, UniProt P20333 23-461)", "T2 construct": "also called CHO-SΔCRD1-TNFR2", "T2 sequence": "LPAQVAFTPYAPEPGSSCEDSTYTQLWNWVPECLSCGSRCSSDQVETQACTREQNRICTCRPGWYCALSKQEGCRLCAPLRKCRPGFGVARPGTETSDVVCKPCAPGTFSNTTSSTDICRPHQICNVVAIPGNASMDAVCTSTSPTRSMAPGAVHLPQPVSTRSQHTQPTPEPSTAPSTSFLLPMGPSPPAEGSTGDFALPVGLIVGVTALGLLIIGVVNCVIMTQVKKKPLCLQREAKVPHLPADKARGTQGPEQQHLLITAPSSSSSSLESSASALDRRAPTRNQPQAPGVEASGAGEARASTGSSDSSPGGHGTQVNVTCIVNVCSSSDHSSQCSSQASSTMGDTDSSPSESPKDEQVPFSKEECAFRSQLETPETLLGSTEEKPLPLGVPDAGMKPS", "assay": "FACS on CHO-S cells with ΔCRD1-TNFR2, AF647 anti-human IgG Fc secondary", "from_the_text": "as §1"}, "[3]": {"target": "T3, ΔCRD4-TNFR2 protein (with CRD4 deletion), on CHO-S cells (human, UniProt P20333 23-461)", "T3 construct": "also called CHO-SΔCRD4-TNFR2; TNFR2 lacking CRD4", "T3 sequence": "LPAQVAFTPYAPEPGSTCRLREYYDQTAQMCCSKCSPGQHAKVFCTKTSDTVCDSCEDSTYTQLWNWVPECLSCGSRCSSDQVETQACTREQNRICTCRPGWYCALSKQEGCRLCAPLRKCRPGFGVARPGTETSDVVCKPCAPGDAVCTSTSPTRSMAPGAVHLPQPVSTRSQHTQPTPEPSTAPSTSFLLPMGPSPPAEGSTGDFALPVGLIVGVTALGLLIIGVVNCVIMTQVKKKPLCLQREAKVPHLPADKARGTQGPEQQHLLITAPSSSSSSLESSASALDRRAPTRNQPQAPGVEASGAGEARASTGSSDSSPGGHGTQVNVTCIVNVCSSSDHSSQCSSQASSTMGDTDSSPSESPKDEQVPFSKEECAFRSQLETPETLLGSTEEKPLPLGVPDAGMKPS", "assay": "FACS on CHO-S cells with ΔCRD4-TNFR2", "from_the_text": "as §1"}, "[4]": {"target": "T1, ΔCRD3-TNFR2 protein (with CRD3 …)", "assay": "FACS on CHO-S cells with ΔCRD3-TNFR2", "from_the_text": "as §1"}, "[5]": {"target": "T3, ΔCRD4-TNFR2 protein (with CRD4 …)", "assay": "FACS on CHO-S cells with ΔCRD4-TNFR2, AF647 anti-human IgG Fc secondary", "from_the_text": "as §1"}, "[6]": {"target": "T4, ΔCRD2-TNFR2 protein (with CRD2 deletion), on CHO-S cells (human, UniProt P20333 23-461)", "T4 construct": "also called CHO-SΔCRD2-TNFR2", "T4 sequence": "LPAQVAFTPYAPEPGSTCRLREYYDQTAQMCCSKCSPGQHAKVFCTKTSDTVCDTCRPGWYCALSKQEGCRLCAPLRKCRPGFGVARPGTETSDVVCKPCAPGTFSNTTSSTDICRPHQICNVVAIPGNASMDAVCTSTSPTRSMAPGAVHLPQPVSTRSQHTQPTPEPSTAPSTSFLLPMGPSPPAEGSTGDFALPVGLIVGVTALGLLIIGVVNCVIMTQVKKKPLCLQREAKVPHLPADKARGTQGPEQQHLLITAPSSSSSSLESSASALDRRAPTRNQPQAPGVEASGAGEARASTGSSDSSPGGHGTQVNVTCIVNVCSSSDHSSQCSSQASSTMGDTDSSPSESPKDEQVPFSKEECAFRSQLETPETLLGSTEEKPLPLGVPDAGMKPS", "assay": "FACS on CHO-S cells with ΔCRD2-TNFR2, AF647 anti-human IgG Fc secondary", "from_the_text": "as §1"}}, "data": [{"binder": "B1", "values": [{"measurement": "positive rate of binding (% of cells)", "setting": "[1]", "value": 0.44, "unit": "%"}, {"measurement": "positive rate of binding (% of cells)", "setting": "[2]", "value": 66.5, "unit": "%"}, {"measurement": "binding result", "setting": "[3]", "value": "no binding"}, {"measurement": "binding result", "setting": "[4]", "value": "no binding"}, {"measurement": "positive rate of binding (% of cells)", "setting": "[5]", "value": 0.83, "unit": "%"}, {"measurement": "positive rate of binding (% of cells)", "setting": "[6]", "value": 75.6, "unit": "%"}]}]}
